Laboratory results published in patent US20050009137A1 (CEDARS SINAI MEDICAL CENTER, published 2005).

Assays:
GST protein alone = target: T1, GST protein alone (UniProt P08515 1-218 = GST); assay: GST pull-down from protein extracts of cells overexpressing IEBP, SDS-PAGE and blot with anti-hsp27 antibody
T1 construct: Control in the GST pull-down; also called GST alone
Protocol: Postnuclear extracts were applied to the GST beads and incubated for 1 hour. The loaded GST-extract mixture was then washed repetitively (5×) with PBS buffer containing 5 mM DTT and 1 mM PMSF and resuspended in 2×SDS sample buffer and boiled for 5 minutes. Denatured proteins were resolved on 4-20% SDS-PAGE gel, transferred to a nitrocellulose membrane, probed with appropriate antibody (obtained from Santa Cruz) and visualized by ECL.
Protein extracts of cells overexpressing IEBP were incubated with a GST-receptor ligand-binding domain fusion protein representing the ER. Control assays were employed using a glucocorticoid receptor (GR)-fusion protein or GST protein alone.

recombinant human ERα = target: T2, recombinant human ERα (human, UniProt P03372 1-595); assay: EMSA with consensus ERE probe, recombinant human ERα and extract of IEBP transfectant; supershift with anti-hsp27 antibody
T2 construct: also called estrogen receptor alpha
T2 sequence (looked up): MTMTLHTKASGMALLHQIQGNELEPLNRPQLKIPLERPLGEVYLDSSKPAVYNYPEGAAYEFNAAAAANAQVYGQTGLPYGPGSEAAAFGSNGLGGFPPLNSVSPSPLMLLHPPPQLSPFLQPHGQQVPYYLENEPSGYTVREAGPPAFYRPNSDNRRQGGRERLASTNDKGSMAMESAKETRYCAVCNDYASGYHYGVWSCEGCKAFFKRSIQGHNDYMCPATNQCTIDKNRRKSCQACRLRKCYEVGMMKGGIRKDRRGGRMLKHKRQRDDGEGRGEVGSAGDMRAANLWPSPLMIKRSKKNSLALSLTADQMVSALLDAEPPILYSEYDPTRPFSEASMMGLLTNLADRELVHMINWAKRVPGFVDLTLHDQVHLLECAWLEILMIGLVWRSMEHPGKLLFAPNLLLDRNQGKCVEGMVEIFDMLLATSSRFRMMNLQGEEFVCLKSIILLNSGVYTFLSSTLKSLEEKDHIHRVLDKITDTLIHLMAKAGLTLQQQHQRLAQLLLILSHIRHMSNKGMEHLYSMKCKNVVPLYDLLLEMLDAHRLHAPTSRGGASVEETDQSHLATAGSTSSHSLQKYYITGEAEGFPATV

T1 sequence (P08515 whole entry): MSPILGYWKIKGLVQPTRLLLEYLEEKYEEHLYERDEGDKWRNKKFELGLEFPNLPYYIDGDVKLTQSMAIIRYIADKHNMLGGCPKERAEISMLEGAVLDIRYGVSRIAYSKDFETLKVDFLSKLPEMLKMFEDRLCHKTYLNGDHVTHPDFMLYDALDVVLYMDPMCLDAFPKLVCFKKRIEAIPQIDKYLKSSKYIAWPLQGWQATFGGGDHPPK

- binding result (GST protein alone): no binding
- binding result (recombinant human ERα): binds
B1: intracellular estradiol binding protein (IEBP) of New World primate B95-8 cells (other)
chain: MTERHVPFSLLQSPSWDPFRDWYPHSHLFDQAFGMPRLPEEWSQWFGTSSWPGYVRPLPPTTVEGPAVAAPAYSRALNQQLSSGVSETADRWRVSLDVNHFAPEELTVKTKDGVVEITGKHEERQDEHGFISRCFTRKYSLPPGVDPTQVSPSLSPEGTLTVDAPMSKPATQSNEITIPVTFESRAQLGGPEAAKSDRSAAK
notes: also called hsp27-like IEBP; hsp 27-related IEBP
